Where two headings read alike, the source gives them in different places.
Key:
soy seed = assay: Free amino acid analysis of soy seed (tryptophan content); type: in vivo, Glycine max; settings: R1 soy seeds expressing the mutant protein
Procedure: Amino Acid Extraction: About 50 mg of crushed soy seed (5 mg of Arabidopsis) material was placed in each centrifuge vial. One milliliter of 5% trichloroacetic acid was added to each sample (100 μl for Arabidopsis). The samples were vortexed, and allowed to sit, with agitation, at room temperature for 15 min. They were then microcentrifuged for 15 min at 14000 rpm. Some of the supernatant was then removed, placed in a HPLC vial and sealed. Samples were kept at 4° C. in the analysis queue.
Amino Acid Analysis: The reagents utilized for amino acid analysis included the OPA reagent (o-phthalaldehyde and 3-mercaptopropionic acid in borate buffer (Hewlett-Packard, PN 5061-3335)) where the borate buffer (0.4 N in water, pH 10.2). The analysis was performed using the Agilent 1100 series HPLC system as described in the Agilent Technical Publication, “Amino Acid Analysis Using Zorbax Eclipse-AAA Columns and the Agilent 1100 HPLC”, Mar. 17, 2000. First, 0.5 μl of the sample was derivatized with 2.5 μl of OPA reagent in 10 μl of borate buffer. Second, the derivative is injected onto a Eclipse XDB-C18 5 μm, 4.6×150 mm column using a flow rate of 1.2 ml/min. Amino acid concentrations were measured using fluorescence: excitation at 340 nm, emission at 450 nm. Elution was with a gradient of HPLC Buffers A and B according to Table A, where HPLC Buffer A was 40 mM Na2HPO4, pH=7.8 and HPLC Buffer B was 9:9:2::Methanol:Acetonitrile:Water.
Amino acid standards were prepared from the dry chemicals, using all amino acids of interest. Proline analysis required an additional derivatization step with 9-fluorenylmethyl-chloroformate (FMOC). Amino acid standards were also sometimes purchased in concentrations ranging from 0 to 100 μg/ml. Samples were reported in μg/g of seed powder.
Mature R1 seed is produced and analyzed for free amino acid content using fluorescence detection as described in Agilent Technologies Technical Bulletin REV14. Five seeds are chosen for single seed analysis from each event. […] The highest levels of tryptophan have a negative impact on germination.

[1] = test system: Agrobacterium tumefaciens AS; assay: Anthranilate synthase enzyme assay and kinetic analysis of purified enzymes; type: biochemical; settings: for Km: 25° C.
Procedure: Agrobacterium tumefaciens AS wild type and mutant enzymes were expressed in E. coli as described in Example 1. The purification of all the Agrobacterium tumefaciens AS enzymes, including wild type and mutants thereof, was performed at 4° C. The cells (approximate wet weight of 1 g) were suspended in 20 ml of purification buffer (50 mM potassium phosphate, pH 7.3, 10 mM MgCl2, 10 mM 2-mercaptoethanol, 10% glycerol) and lysed by ultrasonication (Branson sonifier Cell Disruptor, W185). Supernatant was collected after centrifugation of the homogenate at 20,000×g for 15 min. The supernatant was subjected to ammonium sulfate fractionation (30 to 65% saturation). The precipitate was collected after centrifugation at 20,000×g for 15 min and dissolved in 3 ml of the purification buffer and then loaded as a whole on an Econo-Pac 10DG desalting column, pre-equilibrated with the same buffer. Fractions containing the enzyme were detected by the developed assay and pooled. The pooled enzyme (4.3 mls) was loaded on a 10 ml DEAF Sephacel (Pharmacia Biotech) column (1.5×7.5 cm) equilibrated with the same buffer. The column was washed with 30 ml of the purification buffer and the enzyme was eluted with 30 ml of 50 mM NaCl in the same buffer. Fractions containing high AS activity were pooled and precipitated by 65% ammonium sulfate saturation and isolated and desalted as above. Fractions containing the enzyme were pooled and stored at −80° C.
The standard assay for Agrobacterium tumefaciens AS was performed at 25° C. in an assay buffer containing 100 mM potassium phosphate, pH 7.0, 10 mM MgCl2, 1 mM dithiothreitol, 200 μM chorismate and 10 mM L-glutamine. The reaction was started by adding 30 μl of enzyme to the reaction mixture and mixing. The formation of anthranilate was directly monitored by the absorbance increase at 320 m for 3 minutes. Initial rate of reaction was calculated as unit absorbance increase per second based on the slope of the absorbance change over the reaction time. Km for chorismate (Km^Cho) was determined in the total volume of 1 ml assay buffer containing 100 mM potassium phosphate, pH 7.0, 10 mM MgCl2, 1 mM dithiothreitol with 10 mM L-glutamine and varying the concentration of chorismate between 2.5-100 μM chorismate. The Km for glutamine (Km^Gln) was determined in the total volume of 1 ml assay buffer containing 100 mM potassium phosphate, pH 7.0, 10 mM MgCl2, 1 mM dithiothreitol with 200 μM chorismate and varying the concentration of L-glutamine between 0.1-2 mM L-glutamine. IC50 for tryptophan (IC50^Trp) was determined with in the total volume of 1 ml assay buffer containing 100 mM potassium phosphate, pH 7.0, 10 mM MgCl2, 1 mM dithiothreitol, 10 mM L-glutamine, 200 μM chorismate and varying the concentration of L-tryptophan between 0.1-10 mM L-tryptophan. Kinetic parameters and IC50 of AS were calculated after fitting the data to a non-linear regression program (GraFit).

B1: V48F (protein)
chain: MVTIIQDDGAETYETKGGIQVSRKRRPTDYANAIDNYIEKLDSHRGAFFSSNYEYPGRYTRWDTAIVDPPLGISCFGRKMWIEAYNGRGEVLLDFITEKLKATPDLTLGASSTRRLDLTVNEPDRVFTEEERSKIPTVFTALRAIVDLFYSSADSAIGLFGAFGYDLAFQFDAIKLSLARPEDQRDMVLFLPDEILVVDHYSAKAWIDRYDFEKDGMTTDGKSSDITPDPFKTTDTIPPKGDHRPGEYSELVVKAKESFRRGDLFEVVPGQKFMERCESNPSAISRRLKAINPSPYSFFINLGDQEYLVGASPEMFVRVSGRRIETCPISGTIKRGDDPIADSEQILKLLNSKKDESELTMCSDVDRNDKSRVCEPGSVKVIGRRQIEMYSRLIHTVDHIEGRLRDDMDAFDGFLSHAWAVTVTGAPKLWAMRFIEGHEKSPRAWYGGAIGMVGFNGDMNTGLTLRTIRIKDGIAEVRAGATLLNDSNPQEEEAETELKASAMISAIRDAKGTNSAATKRDAAKVGTGVKILLVDHEDSFVHTLANYFRQTGATVSTVRSPVAADVFDRFQPDLVVLSPGPGSPTDFDCKATIKAARARDLPIFGVCLGLQALAEAYGGELRQLAVPMHGKPSRIRVLEPGLVFSGLGKEVTVGRYHSIFADPATLPRDFIITAESEDGTIMGIEHAKEPVAAVQFHPESIMTLGQDAGMRMIENVVVHLTRKAKTKAA
modifications: An A. tumefaciens mutant.
Soy seed
  amounts of tryptophan: very high amounts of tryptophan

B2: F298A (protein)
chain: MVTIIQDDGAETYETKGGIQVSRKRRPTDYANAIDNYIEKLDSHRGAVFSSNYEYPGRYTRWDTAIVDPPLGISCFGRKMWIEAYNGRGEVLLDFITEKLKATPDLTLGASSTRRLDLTVNEPDRVFTEEERSKIPTVFTALRAIVDLFYSSADSAIGLFGAFGYDLAFQFDAIKLSLARPEDQRDMVLFLPDEILVVDHYSAKAWIDRYDFEKDGMTTDGKSSDITPDPFKTTDTIPPKGDHRPGEYSELVVKAKESFRRGDLFEVVPGQKFMERCESNPSAISRRLKAINPSPYSAFINLGDQEYLVGASPEMFVRVSGRRIETCPISGTIKRGDDPIADSEQILKLLNSKKDESELTMCSDVDRNDKSRVCEPGSVKVIGRRQIEMYSRLIHTVDHIEGRLRDDMDAFDGFLSHAWAVTVTGAPKLWAMRFIEGHEKSPRAWYGGAIGMVGFNGDMNTGLTLRTIRIKDGIAEVRAGATLLNDSNPQEEEAETELKASAMISAIRDAKGTNSAATKRDAAKVGTGVKILLVDHEDSFVHTLANYFRQTGATVSTVRSPVAADVFDRFQPDLVVLSPGPGSPTDFDCKATIKAARARDLPIFGVCLGLQALAEAYGGELRQLAVPMHGKPSRIRVLEPGLVFSGLGKEVTVGRYHSIFADPATLPRDFIITAESEDGTIMGIEHAKEPVAAVQFHPESIMTLGQDAGMRMIENVVVHLTRKAKTKAA
modifications: An A. tumefaciens mutant.
[1]; pH 7.0, 200 μM chorismate, L-glutamine varied, read-out: Km^Gln
  Km: 100 µM
[1]; pH 7.0, 10 mM L-glutamine, chorismate varied, read-out: Km^Cho
  Km: 9.2 µM
[1]; inhibition by L-tryptophan, 10 mM L-glutamine, 200 μM chorismate
  IC50: 5.5 µM
[1]; purified enzyme from E. coli
  kcat: 0.46 s⁻¹

B3: S51C (protein)
chain: MVTIIQDDGAETYETKGGIQVSRKRRPTDYANAIDNYIEKLDSHRGAVFSCNYEYPGRYTRWDTAIVDPPLGISCFGRKMWIEAYNGRGEVLLDFITEKLKATPDLTLGASSTRRLDLTVNEPDRVFTEEERSKIPTVFTALRAIVDLFYSSADSAIGLFGAFGYDLAFQFDAIKLSLARPEDQRDMVLFLPDEILVVDHYSAKAWIDRYDFEKDGMTTDGKSSDITPDPFKTTDTIPPKGDHRPGEYSELVVKAKESFRRGDLFEVVPGQKFMERCESNPSAISRRLKAINPSPYSFFINLGDQEYLVGASPEMFVRVSGRRIETCPISGTIKRGDDPIADSEQILKLLNSKKDESELTMCSDVDRNDKSRVCEPGSVKVIGRRQIEMYSRLIHTVDHIEGRLRDDMDAFDGFLSHAWAVTVTGAPKLWAMRFIEGHEKSPRAWYGGAIGMVGFNGDMNTGLTLRTIRIKDGIAEVRAGATLLNDSNPQEEEAETELKASAMISAIRDAKGTNSAATKRDAAKVGTGVKILLVDHEDSFVHTLANYFRQTGATVSTVRSPVAADVFDRFQPDLVVLSPGPGSPTDFDCKATIKAARARDLPIFGVCLGLQALAEAYGGELRQLAVPMHGKPSRIRVLEPGLVFSGLGKEVTVGRYHSIFADPATLPRDFIITAESEDGTIMGIEHAKEPVAAVQFHPESIMTLGQDAGMRMIENVVVHLTRKAKTKAA
modifications: An A. tumefaciens mutant.
Soy seed
  amounts of tryptophan: very high amounts of tryptophan

B4: V48Y (protein)
chain: MVTIIQDDGAETYETKGGIQVSRKRRPTDYANAIDNYIEKLDSHRGAYFSSNYEYPGRYTRWDTAIVDPPLGISCFGRKMWIEAYNGRGEVLLDFITEKLKATPDLTLGASSTRRLDLTVNEPDRVFTEEERSKIPTVFTALRAIVDLFYSSADSAIGLFGAFGYDLAFQFDAIKLSLARPEDQRDMVLFLPDEILVVDHYSAKAWIDRYDFEKDGMTTDGKSSDITPDPFKTTDTIPPKGDHRPGEYSELVVKAKESFRRGDLFEVVPGQKFMERCESNPSAISRRLKAINPSPYSFFINLGDQEYLVGASPEMFVRVSGRRIETCPISGTIKRGDDPIADSEQILKLLNSKKDESELTMCSDVDRNDKSRVCEPGSVKVIGRRQIEMYSRLIHTVDHIEGRLRDDMDAFDGFLSHAWAVTVTGAPKLWAMRFIEGHEKSPRAWYGGAIGMVGFNGDMNTGLTLRTIRIKDGIAEVRAGATLLNDSNPQEEEAETELKASAMISAIRDAKGTNSAATKRDAAKVGTGVKILLVDHEDSFVHTLANYFRQTGATVSTVRSPVAADVFDRFQPDLVVLSPGPGSPTDFDCKATIKAARARDLPIFGVCLGLQALAEAYGGELRQLAVPMHGKPSRIRVLEPGLVFSGLGKEVTVGRYHSIFADPATLPRDFIITAESEDGTIMGIEHAKEPVAAVQFHPESIMTLGQDAGMRMIENVVVHLTRKAKTKAA
modifications: An A. tumefaciens mutant.
Soy seed
  amounts of tryptophan: very high amounts of tryptophan
